The supplement of paper PMC10126150
± gives the standard deviation of the averaged measurements.

Tested on: ATP
Assay: switch fluorescence ratio, 500 uM ATP over buffer (Cy3 cluster intensity, sum of 5 cycles each) (fold (ratio)); higher = stronger signal-on switching upon ATP binding; sequences stand for … in TCGTCGGCAGCGTCAGATGTGTATAAGAGACAGTTTTTTTTTTTTTTTTTTTTTTTTT…TC
Details: aptamer strand: ATP DNA aptamer (quencher-CACCTGGGGGAGTATTGCGGAGGAAGG + anchor), 100 nM annealed; ATP concentration: 500 uM
How it was run: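 Switching-strand clusters labelled with Cy3 on a modified Illumina MiSeq flow-cell were annealed to 100 nM quencher-labelled ATP aptamer, imaged in selection buffer, and re-imaged after 15 min with 500 uM ATP at 22 °C. This was done over five cycles with NaOH stripping and re-annealing in between. The fluorescence ratio is summed target-cycle over summed buffer-cycle Cy3 intensity per cluster, averaged per switch-domain sequence, excluding clusters outside 100-1000 RFU.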
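Also: ATP exposure 15 min at 22 °C before imaging.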

Sequence	switch fluorescence ratio
AGCTACGTCG	0.942 ± 0.034
AGCTACGTTT	0.9963 ± 0.0053
AGCTAGCGAT	1.02 ± 0.034
AGCTAGTCGC	1.01 ± 0.027
AGCTATTAAG	0.9947 ± 0.0065
AGCTGAAGTT	0.989 ± 0.036
AGCTGACGCT	1.02 ± 0.025
AGCTGACTGC	1.01 ± 0.025
AGCTGATTGC	1 ± 0.02
AGCTGCGACG	0.992 ± 0.044
AGCTGGGAAG	0.982 ± 0.021
AGCTGGGGGA	1.05 ± 0.015
AGCTGGTGGC	1.01 ± 0.078
AGCTGTGACC	1 ± 0.012
AGCTGTTTC	1 ± 0.018
AGCTTAAATT	0.987 ± 0.018
AGCTTAGTTT	0.975 ± 0.028
AGCTTCAAAT	1 ± 0.017
AGCTTCATTC	1.06 ± 0.057
AGCTTCTAAA	0.976 ± 0.022
AGCTTGGATA	1.017 ± 0.01
AGCTTTATGT	1.02 ± 0.04
AGCTTTTTGA	0.966 ± 0.025
AGGAAAAAGC	1.02 ± 0.028
AGGAAACGGG	0.978 ± 0.018

Sequence	switch fluorescence ratio
AGGAAATTAT	1.01 ± 0.029
AGGAACGGGT	0.9838 ± 0.0027
AGGAAGAAAG	1.042 ± 0.0089
AGGAAGTCTG	1.03 ± 0.035
AGGAAGTGGG	0.959 ± 0.028
AGGAATAGCG	1.021 ± 0.0061
AGGAATCCGG	1.03 ± 0.026
AGGAATGGTC	1.02 ± 0.051
AGGAATGTTT	0.985 ± 0.0099
AGGAATTACG	1.05 ± 0.041
AGGAATTGAA	0.982 ± 0.028
AGGACCATGT	1.01 ± 0.02
AGGACGGGA	1.03 ± 0.035
AGGACGGGAT	1.06 ± 0.056
AGGACGTCCA	0.989 ± 0.02
AGGACTGGGG	1.01 ± 0.037
AGGACTGTGT	1.02 ± 0.04
AGGACTTGTC	0.951 ± 0.01
AGGAGAGACC	0.9848 ± 0.0029
AGGAGCGGTA	1.1 ± 0.12
AGGAGCGGTT	1.02 ± 0.061
AGGAGCTTGA	1.03 ± 0.018
AGGAGGAGGA	1.07 ± 0.065
AGGAGGAGGC	0.789 ± 0.23
AGGAGGCGAG	0.9905 ± 0.0088

Sequence	switch fluorescence ratio
AGGAGGGATG	0.985 ± 0.022
AGGAGGGGGG	1.01 ± 0.039
AGGAGGGGGT	0.991 ± 0.033
AGGAGGTTAT	1.01 ± 0.013
AGGAGTACGT	0.988 ± 0.013
AGGAGTACTT	1.02 ± 0.019
AGGAGTGGTA	0.999 ± 0.013
AGGAGTTTAG	0.9867 ± 0.0093
AGGATAACCC	1.018 ± 0.0064
AGGATAGTTG	0.982 ± 0.038
AGGATCAACG	0.984 ± 0.034
AGGATCGGTA	0.987 ± 0.022
AGGATCTTGT	0.9943 ± 0.0016
AGGATGCAGA	1.01 ± 0.024
AGGATGGGG	0.9741 ± 0.0069
AGGATGGGTG	0.991 ± 0.021
AGGATGGTTG	1 ± 0.021
AGGATGTGCT	0.9655 ± 0.006
AGGATTATGT	1.01 ± 0.035
AGGATTGGGT	0.99 ± 0.017
AGGATTTGAG	1 ± 0.013
AGGATTTGGT	0.984 ± 0.031
AGGATTTTAG	1.002 ± 0.0049
AGGATTTTTG	1.02 ± 0.021
AGGCAAAGCA	1.05 ± 0.073

Sequence	switch fluorescence ratio
AGGCAAAGGC	1.06 ± 0.036
AGGCAGACCG	1.03 ± 0.07
AGGCAGATGG	0.998 ± 0.021
AGGCAGTGGG	0.998 ± 0.028
AGGCATCAAC	1.02 ± 0.013
AGGCATGCTG	0.98 ± 0.062
AGGCCCCCGA	1.02 ± 0.066
AGGCCGAGTC	1.02 ± 0.054
AGGCCGGGTG	1.35 ± 0.052
AGGCCGTGGC	0.968 ± 0.035
AGGCCTAACG	0.995 ± 0.01
AGGCCTCGCA	1.03 ± 0.039
AGGCCTGGG	1 ± 0.016
AGGCCTTCGA	1.003 ± 0.0083
AGGCGCAATT	1.81 ± 0.94
AGGCGCAGGG	0.9982 ± 0.0089
AGGCGCGCGG	0.9507 ± 0.0057
AGGCGCTAT	1.04 ± 0.021
AGGCGGATGG	0.9853 ± 0.0062
AGGCGGCAGC	0.982 ± 0.02
AGGCGGCCTG	0.982 ± 0.016
AGGCGGCTTC	1.03 ± 0.014
AGGCGGGGTA	0.9847 ± 0.0089
AGGCGGTGCG	1.02 ± 0.03
AGGCGGTGGC	1.02 ± 0.11
